The experiment has as its target GST-DLG1 fusion protein (PDZ domains 1-2) (human) (UniProt Q12959). The experiment can be described thus: variant of the G assay, 100 uM 8-mer against 20 uM biotin-labeled AA2L.

In the case of “eight amino acid CLASP-2 peptide MTSSSSVV (unlabeled)”, the percent inhibition at 100 uM is greater than 50%.

The values are drawn from patent US20050037969A1.
